One block for each binder: values may come before it.
Columns and labels:
[1] = molecular target: calmodulin; test: other dot blot
[2] = molecular target: YKL-40 A92 (human); test: BLI
[3] = molecular target: YKL-40 A107 (human); test: BLI
[4] = molecular target: YKL-40 A135 (human); test: BLI
[5] = molecular target: YKL-40 A100 (human); test: BLI
[6] = molecular target: YKL-40 A172 (human); test: BLI
[7] = molecular target: YKL-40 A146 (human); test: BLI
[8] = molecular target: YKL-40 A149 (human); test: BLI
[9] = molecular target: YKL-40 A134 (human); test: BLI
[10] = molecular target: YKL-40 A104 (human); test: BLI
[11] = molecular target: YKL-40 A145 (human); test: BLI
[12] = molecular target: YKL-40 R301 (human); test: BLI
[13] = molecular target: YKL-40 A286 (human); test: BLI
[14] = molecular target: YKL-40 A44 (human); test: BLI
[15] = molecular target: YKL-40 A142 (human); test: BLI
[16] = molecular target: YKL-40 A148 (human); test: BLI
[17] = molecular target: YKL-40 A256 (human); test: BLI
[18] = molecular target: YKL-40 R284 (human); test: BLI
[19] = molecular target: YKL-40 A283 (human); test: BLI
[20] = molecular target: YKL-40 A302 (human); test: BLI
[21] = molecular target: human YKL-40 WT (human); test: BLI
[22] = molecular target: YKL-40 A108 (human); test: BLI
[23] = molecular target: YKL-40 A300 (human); test: BLI
[24] = molecular target: YKL-40 A175 (human); test: BLI
[25] = molecular target: YKL-40 A289 (human); test: BLI
[26] = molecular target: YKL-40 A249 (human); test: BLI
[27] = molecular target: YKL-40 A93 (human); test: BLI
[28] = molecular target: YKL-40 A287 (human); test: BLI
[29] = molecular target: YKL-40 A141 (human); test: BLI
[30] = molecular target: YKL-40 A96 (human); test: BLI
[31] = molecular target: YKL-40 A191 (human); test: BLI
[32] = molecular target: YKL-40 A42 (human); test: BLI
[33] = molecular target: YKL-40 A288 (human); test: BLI
[34] = molecular target: YKL-40 A250 (human); test: BLI
[35] = molecular target: YKL-40 A194 (human); test: BLI
[36] = molecular target: YKL-40 A192 (human); test: BLI
YKL-40 A192 (human), sequence (chain, as listed by the source): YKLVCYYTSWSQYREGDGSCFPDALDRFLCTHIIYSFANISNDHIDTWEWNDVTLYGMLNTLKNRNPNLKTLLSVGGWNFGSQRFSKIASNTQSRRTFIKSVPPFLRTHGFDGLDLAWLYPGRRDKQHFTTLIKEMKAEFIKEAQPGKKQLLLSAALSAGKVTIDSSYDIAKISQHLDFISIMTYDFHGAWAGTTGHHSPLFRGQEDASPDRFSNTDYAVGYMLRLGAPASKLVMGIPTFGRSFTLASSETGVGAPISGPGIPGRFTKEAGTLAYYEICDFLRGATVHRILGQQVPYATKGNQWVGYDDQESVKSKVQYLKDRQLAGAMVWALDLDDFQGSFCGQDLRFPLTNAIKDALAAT

YKL-40 A145 (human), sequence (chain, as listed by the source): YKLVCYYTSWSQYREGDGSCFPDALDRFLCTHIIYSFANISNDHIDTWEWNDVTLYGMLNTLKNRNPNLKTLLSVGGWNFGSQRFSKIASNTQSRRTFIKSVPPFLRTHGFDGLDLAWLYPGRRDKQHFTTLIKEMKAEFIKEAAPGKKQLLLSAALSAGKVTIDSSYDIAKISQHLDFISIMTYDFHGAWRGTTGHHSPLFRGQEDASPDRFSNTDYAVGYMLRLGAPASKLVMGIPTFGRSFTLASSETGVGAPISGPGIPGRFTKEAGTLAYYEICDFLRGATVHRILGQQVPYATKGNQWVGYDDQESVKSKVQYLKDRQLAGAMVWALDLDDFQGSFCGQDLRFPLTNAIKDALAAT
YKL-40 A288 (human), sequence (chain, as listed by the source): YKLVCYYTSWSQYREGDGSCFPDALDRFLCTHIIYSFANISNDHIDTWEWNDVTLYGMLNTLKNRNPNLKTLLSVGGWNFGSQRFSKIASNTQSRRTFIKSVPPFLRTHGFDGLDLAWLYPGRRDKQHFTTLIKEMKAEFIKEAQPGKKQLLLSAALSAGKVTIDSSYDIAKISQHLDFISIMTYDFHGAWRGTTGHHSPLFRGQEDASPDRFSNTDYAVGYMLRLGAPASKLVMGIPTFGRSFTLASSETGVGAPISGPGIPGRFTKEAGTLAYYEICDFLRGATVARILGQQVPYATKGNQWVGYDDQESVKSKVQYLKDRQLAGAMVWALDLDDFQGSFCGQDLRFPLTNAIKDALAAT
YKL-40 A175 (human), sequence (chain, as listed by the source): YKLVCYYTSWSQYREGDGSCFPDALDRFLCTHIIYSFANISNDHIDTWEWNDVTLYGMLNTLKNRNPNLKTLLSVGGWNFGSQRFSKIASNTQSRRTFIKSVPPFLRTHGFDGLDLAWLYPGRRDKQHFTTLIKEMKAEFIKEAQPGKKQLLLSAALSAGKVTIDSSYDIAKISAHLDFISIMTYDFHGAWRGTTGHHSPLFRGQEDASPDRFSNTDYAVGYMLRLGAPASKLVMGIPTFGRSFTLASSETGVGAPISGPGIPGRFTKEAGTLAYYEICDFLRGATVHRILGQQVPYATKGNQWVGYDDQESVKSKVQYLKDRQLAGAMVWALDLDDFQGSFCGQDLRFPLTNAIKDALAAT
YKL-40 A283 (human), sequence (chain, as listed by the source): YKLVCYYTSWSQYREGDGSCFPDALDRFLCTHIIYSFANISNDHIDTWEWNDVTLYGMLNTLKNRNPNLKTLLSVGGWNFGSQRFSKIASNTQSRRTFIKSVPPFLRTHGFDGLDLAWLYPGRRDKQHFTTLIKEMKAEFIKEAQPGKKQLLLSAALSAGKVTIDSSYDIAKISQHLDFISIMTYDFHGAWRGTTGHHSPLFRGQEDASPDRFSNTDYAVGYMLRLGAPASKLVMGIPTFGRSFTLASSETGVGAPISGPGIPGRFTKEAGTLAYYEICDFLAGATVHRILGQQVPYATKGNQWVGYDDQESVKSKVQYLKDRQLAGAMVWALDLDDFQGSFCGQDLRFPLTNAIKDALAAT
YKL-40 A42 (human), sequence (chain, as listed by the source): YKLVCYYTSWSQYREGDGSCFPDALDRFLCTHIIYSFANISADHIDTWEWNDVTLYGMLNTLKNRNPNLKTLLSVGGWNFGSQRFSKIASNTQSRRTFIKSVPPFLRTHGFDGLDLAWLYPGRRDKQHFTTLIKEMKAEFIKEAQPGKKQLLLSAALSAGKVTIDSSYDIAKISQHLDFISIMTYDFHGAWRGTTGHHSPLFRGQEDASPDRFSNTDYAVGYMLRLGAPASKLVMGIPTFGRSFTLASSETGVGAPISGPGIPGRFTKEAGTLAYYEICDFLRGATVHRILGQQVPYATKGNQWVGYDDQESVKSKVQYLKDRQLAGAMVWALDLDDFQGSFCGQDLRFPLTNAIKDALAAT
YKL-40 A149 (human), sequence (chain, as listed by the source): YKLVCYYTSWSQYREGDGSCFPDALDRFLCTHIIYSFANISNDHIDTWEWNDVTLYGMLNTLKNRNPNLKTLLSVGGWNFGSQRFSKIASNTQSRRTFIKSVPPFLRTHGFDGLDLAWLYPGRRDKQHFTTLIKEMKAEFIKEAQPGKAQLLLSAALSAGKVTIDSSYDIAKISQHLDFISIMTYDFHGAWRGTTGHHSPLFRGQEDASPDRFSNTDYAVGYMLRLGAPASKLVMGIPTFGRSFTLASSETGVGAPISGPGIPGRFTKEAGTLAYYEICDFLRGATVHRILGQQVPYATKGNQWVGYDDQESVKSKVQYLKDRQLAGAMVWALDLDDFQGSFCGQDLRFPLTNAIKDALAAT
YKL-40 A141 (human), sequence (chain, as listed by the source): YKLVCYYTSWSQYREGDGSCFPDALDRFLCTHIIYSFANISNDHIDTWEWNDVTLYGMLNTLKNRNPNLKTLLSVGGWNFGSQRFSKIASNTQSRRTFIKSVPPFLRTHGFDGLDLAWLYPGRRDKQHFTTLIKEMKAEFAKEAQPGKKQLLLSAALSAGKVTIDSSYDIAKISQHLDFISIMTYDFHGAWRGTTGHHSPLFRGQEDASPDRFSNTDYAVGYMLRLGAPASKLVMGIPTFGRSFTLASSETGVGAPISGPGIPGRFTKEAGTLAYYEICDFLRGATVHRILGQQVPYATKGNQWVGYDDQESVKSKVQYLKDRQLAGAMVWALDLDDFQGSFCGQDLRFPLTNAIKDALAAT
YKL-40 A256 (human), sequence (chain, as listed by the source): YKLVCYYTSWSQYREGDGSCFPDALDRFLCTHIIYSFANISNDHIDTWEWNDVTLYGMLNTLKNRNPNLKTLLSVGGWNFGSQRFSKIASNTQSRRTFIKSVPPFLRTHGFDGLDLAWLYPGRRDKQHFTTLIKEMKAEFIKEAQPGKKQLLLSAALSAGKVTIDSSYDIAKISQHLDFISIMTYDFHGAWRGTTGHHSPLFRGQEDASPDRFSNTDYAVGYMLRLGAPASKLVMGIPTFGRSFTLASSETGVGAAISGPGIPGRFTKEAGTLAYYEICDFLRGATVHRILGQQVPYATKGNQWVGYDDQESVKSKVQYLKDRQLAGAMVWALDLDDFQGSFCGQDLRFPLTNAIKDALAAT
YKL-40 A96 (human), sequence (chain, as listed by the source): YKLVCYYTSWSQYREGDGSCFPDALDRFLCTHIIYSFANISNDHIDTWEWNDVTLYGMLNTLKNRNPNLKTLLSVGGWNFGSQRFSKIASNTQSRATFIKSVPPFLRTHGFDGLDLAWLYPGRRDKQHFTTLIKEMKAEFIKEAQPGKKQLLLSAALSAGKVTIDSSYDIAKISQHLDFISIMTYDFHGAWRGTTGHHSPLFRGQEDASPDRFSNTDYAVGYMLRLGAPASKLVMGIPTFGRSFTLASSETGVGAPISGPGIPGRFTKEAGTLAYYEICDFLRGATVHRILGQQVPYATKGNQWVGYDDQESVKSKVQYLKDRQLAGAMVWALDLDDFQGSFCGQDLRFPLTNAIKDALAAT
YKL-40 A194 (human), sequence (chain, as listed by the source): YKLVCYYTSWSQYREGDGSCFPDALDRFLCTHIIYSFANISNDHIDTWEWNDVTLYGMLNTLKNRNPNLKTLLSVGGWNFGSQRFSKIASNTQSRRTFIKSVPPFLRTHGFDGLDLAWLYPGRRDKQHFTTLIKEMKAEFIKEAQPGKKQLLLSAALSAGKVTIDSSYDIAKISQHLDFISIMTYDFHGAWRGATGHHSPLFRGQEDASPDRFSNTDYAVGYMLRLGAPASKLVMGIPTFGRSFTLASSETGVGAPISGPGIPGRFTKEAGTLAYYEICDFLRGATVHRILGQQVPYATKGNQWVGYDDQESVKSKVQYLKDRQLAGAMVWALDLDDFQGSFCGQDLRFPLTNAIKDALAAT
YKL-40 A134 (human), sequence (chain, as listed by the source): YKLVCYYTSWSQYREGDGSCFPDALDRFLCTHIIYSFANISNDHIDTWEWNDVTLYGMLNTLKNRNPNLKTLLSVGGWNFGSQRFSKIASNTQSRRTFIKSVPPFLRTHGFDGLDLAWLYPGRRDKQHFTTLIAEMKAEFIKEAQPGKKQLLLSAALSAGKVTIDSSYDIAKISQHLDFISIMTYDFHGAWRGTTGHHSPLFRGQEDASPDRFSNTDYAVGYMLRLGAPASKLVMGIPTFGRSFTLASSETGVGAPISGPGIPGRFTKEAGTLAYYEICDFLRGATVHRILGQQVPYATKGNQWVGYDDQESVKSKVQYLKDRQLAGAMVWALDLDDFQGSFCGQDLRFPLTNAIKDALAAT
YKL-40 A148 (human), sequence (chain, as listed by the source): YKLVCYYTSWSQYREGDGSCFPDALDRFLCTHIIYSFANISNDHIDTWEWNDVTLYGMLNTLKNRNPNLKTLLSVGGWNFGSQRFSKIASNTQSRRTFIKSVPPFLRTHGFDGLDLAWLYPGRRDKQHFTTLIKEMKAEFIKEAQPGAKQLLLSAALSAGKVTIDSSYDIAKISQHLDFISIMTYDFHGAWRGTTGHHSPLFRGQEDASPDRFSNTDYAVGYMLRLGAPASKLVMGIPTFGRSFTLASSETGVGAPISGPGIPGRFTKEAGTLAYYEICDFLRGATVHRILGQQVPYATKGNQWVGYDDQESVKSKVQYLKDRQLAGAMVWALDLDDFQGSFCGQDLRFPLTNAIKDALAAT

binding result [1]: no binding
B1: B3-hFc (antibody)
chain 1: MAEVQLLESGGGLVQPGGSLRLSCAASGFRDSDEDMGWVRQAPGKGLEWVSSISAPGGSTYYADSVKGRFTISRDNSKNTLYLQMNSLRAEDTAVYYCASHYNYGHWFDYWGQGTLVTVSSAA
chain 2: VECPPCPAPPVAGPSVFLFPPKPKDTLMISRTPEVTCVVVDVSHEDPEVQFNWYVDGMEVHNAKTKPREEQFNSTFRVVSVLTVVHQDWLNGKEYKCKVSNKGLPAPIEKTISKTKGQPREPQVYTLPPSREEMTKNQVSLTCLVKGFYPSDIAVEWESNGQPENNYKTTPPMLDSDGSFFLYSKLTVDKSRWQQGNVFSCSVMHEALHNHYTQKSLSLSPGK

Kd [2]: 33.9 nM
Kd [3]: 0.611 nM
Kd [4]: 0.755 nM
Kd [5]: 0.906 nM
Kd [6]: 0.655 nM
Kd [7]: 0.773 nM
Kd [8]: 0.84 nM
Kd [9]: 0.516 nM
Kd [10]: 0.423 nM
Kd [11]: 0.465 nM
Kd [12]: 0.753 nM
Kd [13]: 0.472 nM
Kd [14]: 0.439 nM
Kd [15]: 0.79 nM
Kd [16]: 0.817 nM
Kd [17]: 104 nM
Kd [18]: 52000 nM
Kd [19]: 1.07 nM
Kd [20]: 0.673 nM
Kd [21]: 1180 nM
Kd [22]: 0.529 nM
Kd [23]: 7260 nM
Kd [24]: 0.684 nM
Kd [25]: 0.693 nM
Kd [26]: 2480 nM
Kd [27]: 0.777 nM
Kd [28]: 164 nM
Kd [29]: 0.638 nM
Kd [30]: 0.558 nM
Kd [31]: 4800 nM
Kd [32]: 2540 nM
Kd [33]: 0.649 nM
Kd [34]: 120 nM
Kd [35]: 20600 nM
Kd [36]: 0.699 nM
B2: H7 (antibody, V domains shown)
VH: EVQLQQSGAELVKPGASVKLSCTASGFNIKDTYMHWVKQRPEQGLEWIGRIDPANGNTIYASKFQGKATITRDTSSNTAYMQLSSLTSGDTAVYYCTRGVYYYGGSFYAMDYWGQGTSVTVSS
VL: DIQMTQSPASLSASVGETVTITCGASENIYGALNWYQRKQGKSPQLLIYGATTLADGMSSRFSGSGSGRQYSLKISSLHPDDVATYYCQNVLTTPWTFGGGTKLEIKT
